{
  "source": "patent US20230407373A1",
  "about": "(priority 2020, published 2023)",
  "molecules": {"B1": {"name": "G3BP2: host protein of the core SARS-CoV-2 RNA interactome (protein, UniProt Q9UN86 2-482, looked up)", "Ras GTPase-activating …": "VMEKPSPLLVGREFVRQYYTLLNKAPEYLHRFYGRNSSYVHGGVDASGKPQEAVYGQNDIHHKVLSLNFSECHTKIRHVDAHATLSDGVVVQVMGLLSNSGQPERKFMQTFVLAPEGSVPNKFYVHNDMFRYEDEVFGDSEPELDEESEDEVEEEQEERQPSPEPVQENANSGYYEAHPVTNGIEEPLEESSHEPEPEPESETKTEELKPQVEEKNLEELEEKSTTPPPAEPVSLPQEPPKAFSWASVTSKNLPPSGTVSSSGIPPHVKAPVSQPRVEAKPEVQSQPPRVREQRPRERPGFPPRGPRPGRGDMEQNDSDNRRIIRYPDSHQLFVGNLPHDIDENELKEFFMSFGNVVELRINTKGVGGKLPNFGFVVFDDSEPVQRILIAKPIMFRGEVRLNVEEKKTRAARERETRGGGDDRRDIRRNDRGPGGPRGIVGGGMMRDRDGRGPPPRGGMAQKLGSGRGTGQMEGRFTGQRR"}},
  "tested_on": "HCoV-OC43 gRNA and sgRNA",
  "assay_type": "binding",
  "data": [
    {"molecule": "B1", "values": [
      {"measurement": "background (unweighted spectral count, no-probe control)", "result": 1},
      {"measurement": "target (unweighted spectral count)", "result": 4},
      {"measurement": "target (unweighted spectral count, OC43 Probe II capture)", "result": 4},
      {"measurement": "target (unweighted spectral count, OC43 Probe II)", "result": 9}
    ]}
  ]
}
